Test: soluble on expression in E. coli; label from the status in PepcDB or PDB records
For “MVRLTTELFAERPQFVNSVNMREINLRGQKIPVIENMGVTRDQFDVIDLTDNDIRKLDNFPTFSRLNTLYLHNNRINYIAPDIATKLPNLKTLALTNNNICELGDIEPLAECKKLEYVTFIGNPITHKDNYRMYMIYKLPTVRVIDFNRVRLTEREAAKKMFKGKSGKKARDAIQKSVHTEDPSEIEPNENSSGGGARLTDEDREKIKEAIKNAKSLSEVNYLQSILASGKVPEKGWNRQMDQNGADGEAMES”, the “soluble on expression in E. coli” value was “not soluble”.
In the case of “MVRVCACLIVKNEAAHLARCLGSVQPWVDDIVVVDTGSTDETPAIARQFTERLFTFPWQDDFAAARNYSLEQATGDWILVIDADEVLVTLQEPPVPLGQQLAGSPFTAYQLLRREIGTGEQFSDFAIVRLFRNLPTLRYQGRFHEQLVSTAAAPLTIGTLETLRIDHYGYQPAQIQAKMRDRNIPILERIRASEGLPLHLLFALADMYQAVNNPVEAENCYQELFDRLLPHLLSGQLPENAPGALPEILNQLGRRLLATGDHDTLQLLCQQGLAWFPTYPPLNDLAGRWLMTLGFPLGATAYFEYCLELGRTNGYSKQMIFPLGYVREIAAEQLGRAYEALGDRERAAAAFAQAAALRQGKAHPQLEHHHHHH”, the “soluble on expression in E. coli” value is reported as “soluble”.
For “MVRVPLTAEELERGQRLGELLRSARGDMSMVTVAFDAGISVETLRKIETGRIATPAFFTIAAVARVLDLSLDDVAAVVTFGPVSTS”, the “soluble on expression in E. coli” value was “soluble”.
In the case of “MVSDEDELNLLVIVVDANPIWWGKQALKESQFTLSKCIDAVMVLGNSHLFMNRSNKLAVIASHIQESRFLYPGKNGRLGDFFGDPGNPPEFNPSGSKDGKYELLTSANEVIVEEIKDLMTKSDIKGQHTETLLAGSLAKALCYIHRMNKEVKDNQEMKSRILVIKAAEDSALQYMNFMNVIFAAQKQNILIDACVLDSDSGLLQQACDITGGLYLKVPQMPSLLQYLLWVFLPDQDQRSQLILPPPVHVDYRAACFCHRNLIEIGYVCSVCLSIFCNFSPICTTCETAFKISLPPVLKAKKKKLKVSA”, the “soluble on expression in E. coli” value is reported as “not soluble”.
With “MVSFTKDQIADIIRKVGDGTSPEALESAVRNVLAKLQSEGLSAPASQGGKLDASSYPLGIKRKDLVKSATGLGLDDITIEKVVSGEIQFDDIKTRPETLAYQNEIAKSVNRPNLANNLARAGEMTRIPDARLLEMYNFLRPYRAAKQEMISMAEELEQKYQAPACAKLVREAADVYEKNNRLKGDR” the “soluble on expression in E. coli” value was “not soluble”.
In the case of “MVSKELVVCHLYGNLLNTYGDNGNLLMLKYLTEKMGVTFRSEIISIYEPFDPEKYDLVFVGGGQDFEQLIISEDIQNKKEALTSYIENDGVLLAICGGYQLLGHYYVGAQGEKIKGIGALDHYTLSQDNNRFIGDIEIYNEEFDETYYGFENHNGMTFLGEGERPLGTVKQGKGNNGQDNGEGVVYKNVFGSYFHGPILARNKNLGIRLIRTALEKKYGEPIAIPETLYK”, the “soluble on expression in E. coli” value is reported as “not soluble”.
In the case of “MVSKKKALEMIDVIANMFPDAECELKHDNPFELTIAVLLSAQCTDVLVNRVTTELFKKYKTPEDYLAVSDEELMNDIRSIGLYRNKAKNIKKLCQSLIDQFNGEIPQTHKELESLAGVGRKTANVVMSVAFDEPSLAVDTHVERVSKRLGINRWKDNVRQVEDRLCSVIPRDRWNRSHHQLIFFGRYHCLARKPKCDICPLLEDCREGQKRYKASLKEA”, the “soluble on expression in E. coli” value is reported as “not soluble”.
In the case of “MVSPILANIALNGIESIHRSKAKGQIIEPSVRYADDMVIILKPKDNAIEILERISEFLRKRGMQVSQKKTKITAATDGFDFLGWHFKVQKNGKFKSTPSVDNFKAFRKKVKHIVNNSNYGSIVKAQKLSPIVRGWRNYHKFCKMDGSKHSLWFLNHRTYTVFTKESKHTRQSSEKLIKKAFPLVPNSENKHVMVQGIKSPYDGNLTCWSKRNSKLYDGHTSKALTKQNHKCASCGLKFIGEERVHLHHRDGNHDNWKPNNLEALHESCHDYRHMSKTERLEHHHHHH”, the “soluble on expression in E. coli” value is reported as “not soluble”.
With “MVSSLFINPFSEDAREIVRKYGSLDTIDDTRDELLEIGRRTRGQNLADNSLLPASIAELAVKRLEWYLRRQRKDFNHRDYAYLMNPEIEEYDVLAFYILAQAAGAGFMKASREARLVVESAGAMVEDRLNVFGGEREEIMAEVLYELGSEGLRWTELADLLGSGKLKLTDLILKEGRVIIDRDEFITSFQDSIRDRSPDRLYDILVGLEVRETMISRMIMQRTEEYIGMVREMSSTVEVHPLILETAERIRETVEEIMSFTGGPVKSARPGKLVQEAFPPCIRGTLDGVRSGNRNDAIVLLLTSFISYARLYPSVFRDRTPMKVSDLDPDLRITLGEILPVIYDAADRCEPPLFEDDPQEKLNITAKLGFGVHDMPELENEGESKWYTPMSCEKIKIHLPDLCRPDKLCSSISNPLTYYNRKRWKLRSSGEKEELEHHHHHH” the “soluble on expression in E. coli” value was “not soluble”.
For “MVSSQPKYDLIREVGRGSYGLVYEALVRRTGQRVAVKKIRCQAPENVELALREFWALSSIQSQHPNVIHLEECVLQRDGMVQRMLHGSSSVLYLP”, the “soluble on expression in E. coli” value was “not soluble”.
With “MVSTYDEIEIEDMTFEPENQMFTYPCPCGDRFQIYLDDMFEGEKVAVCPSCSLMIDVVFDKEDLAEYYEEAGIHPPEPIAAAA” the “soluble on expression in E. coli” value was “soluble”.
With “MVTKEQVVEALEGIVDPFLHKTLKETSAIKEVTVKPEKEHVSVKIAIVKTGTAEQMQLQSGIVKLVKELGAATVGLRFAEFTEEELAQFAPEQEEEQSESLLSPNSKTTFLAVASGKGGVGKSTVSVNLAVALARLGKKVGIIDADIYGFSVPDMMGIEKRPIVRGDKIIPVERLGVKVISMGFFVEDNAPVIWRGPMLGKMLNHFFTEVEWGDLDYLVLDLPPGTGDVALDVHSMLPSCKEIIVTTPHPTAAFVAARAGAMALRTEHSILGVVENMAYFESKVTGEKEYVFGKGGGDKLATELQTNVLGRIPLQQPDWNKEDFAPSVYEDTHTTGIIYSKIAETVIDKTAVTQKLEHHHHHH” the “soluble on expression in E. coli” value was “soluble”.
In the case of “MVTKFLIFVSENQQLTSKFNLVTRQNADLKIGLRGVLFSIQGLREELSVAKQRIEEMKEDSFFESMPKLEREAPAFMDSPAETSSPDVEMEDVVYEEVVKETEVANF”, the “soluble on expression in E. coli” value is reported as “not soluble”.
With “MVTRVLIVGDGDAGTIMANKLRFHTDRRDVDITVVGNSKDHYFKPDGVHISFNMVDYKKSVKPTEFLFNYGVNYIRDTVSRIDVADHSVQTTGGRNLDYDYLIIATGDRFTPEDVPGYAESAKHFYDLPHALELQKEIKGFKGGKVVIGQASIPIMCPPAPYEFTFLLEEYLNFHGLKDKTEIHYIYPLNRVFTIPNVADFVAKRMEERGIITHTLFNVESIDPKNKKIQSLEGESINYDLLVLIPPHRGQKVITDSGLADESGYIDVDKYKLNYKDYDNVFAIGDATNLPVSKAGATAHFEALYLSNRIAAETSGNVYNELYEGDVACTTVTGYEKGLTLYFNYNKPPRANYDSKLDYFLKWQSGDTFFSSMLRGVALEHHHHHH” the “soluble on expression in E. coli” value was “not soluble”.
For “MVTTLTPVICESAPAAAASYSHAMKVNNLIFLSGQIPVTPDNKLVEGSIADKAEQVIQNIKNVLEASNSSLDRVVKVNIFLADINHFAEFNSVYAKYFNTHKPARSCVAVAALPLGVDMEMEAIAAERD”, the “soluble on expression in E. coli” value was “soluble”.
With “MVVAKPTAAVSIEDLIKKHSDVDPFLVKKWERIFSLFFDRNASHQVDWGDFYLVVKKVRDIYGAESVQTGFAKKSLAALWEGLCSIADADKDQLISIDEWIGLLKKTDAKTEPKWFKDYQNFMFKLFDVSCDGVMDLAEYTDGMSTYGFDQSECDAAFHKFSVDKKGQYVPQMKPETWNTYFHQLFYSTNKSDVGNHLFGIIDF” the “soluble on expression in E. coli” value was “not soluble”.
For “MVVIIPPKLSVSTLMGVLKGRSAIRLFNKFPHVRKKQWGNSFWARGYFVDTVGVNEEIIRRYVRHQDKQDQEHEAQLSLQMM”, the “soluble on expression in E. coli” value was “soluble”.
In the case of “MVVIMLNYDDIKIIDEIYSEGYLFAQYGIYIKKKFKQKIFKIPVDIGLGCPHKKNGGCIFCPEMGRPISVKYCSAKIPLKEQIKKQMENQKKKGFKKFYIYFYPGTNTYAPAEKLKEIWDFSLSYKEVIGLSIGTRPDCLEKEKLDILAEYVENGYDIWIDLGVQSMHQKTLEILNRGHDVSDIIKAIKDCHKRGIKVCGHVILGLPGESWKEMMETAKILSLLEIEAVKIYPLVVVKGTKLEEMYW”, the “soluble on expression in E. coli” value is reported as “not soluble”.
In the case of “MVYPRLLINLKEIEENARKVVEMASRRGIEIVGVTKVTLGDPRFAETLRKAGIGILGESRIRNVLRMKKAGIEGPFMLLRLPMMSELVEDVKHFDYIMVSDPDVAKKVDELSREMKRNVKIIYMIDVGDLREGVWFEKAVEEIAQCRGANIVGIGTNFGCYGGIIPTREKFEILLDIKEKLEKNHGFNIEIVSGGNTPALYALENGEIPEGINQLRIGEAIVLGRDITNNRVIDWLSQNTFLIEAEVIEVKEKPSVPLGKRGLDVFGRKVDFVDRGIRKRAICALGEQDIDSRGLIPVDKGVEVLHASSDHIVLDVTDFGDVKVGDVFRFRMTYSCLLKAMTSPFVEKVYEPSI”, the “soluble on expression in E. coli” value is reported as “soluble”.
For “MWDERFSQSEYVYGTEPNDFLVSVANQIPQGKILCLAEGEGRNACFLASLGYEVTAVDQSSVGLAKAKQLAQEKGVKITTVQSNLADFDIVADAWEGIVSIFCHLPSSLRQQLYPKVYQGLKPGGVFILEGFAPEQLQYNTGGPKDLDLLPKLETLQSELPSLNWLIANNLERNLDEGAYHQGKAALIQLLGQKLEHHHHHH”, the “soluble on expression in E. coli” value was “soluble”.
With “MWGRYEKLRIFYDPTRAIYDSGADYLTREKHRLVVIANSAWGLLLNLSCYYDEVLEKRKIPFGKQEIDDDMDKVSALKRKFKDISEIKVGDGWEYPFNYEQGMKELDEVLLKYIPFFEEER” the “soluble on expression in E. coli” value was “not soluble”.
In the case of “MYAKSLNGDAFSNEAKQKAIELIKQDLGQIDLVVYSLASPVRKMPDTGELVRSALKPIGETYTSTAVDTNKDVIIEASVEPATEQEIADTVTVMGGQDWELWIQALEEAGVLAEGCKTVAYSYIGTELTWPIYWDGALGRAKMDLDRAATALNEKLAAKGGTANVAVLKSVVTQASSAIPVMPLYIAMVFKKMREQGVHEGCMEQIYRMFSQRLYKEDGSAPEVDDHNRLRLDDWELRDDIQQHCRDLWPQITTENLRELTDYDMYKEEFIKLFGFGIEGIDYDADVNPEVEFDVIDIE”, the “soluble on expression in E. coli” value is reported as “not soluble”.
In the case of “MYALEIEQLRKTYAGGFEALKGISLQVKKGDFYALLGPNGAGKSTTIGIISSLVNKTSGKVTVFGYDLDSQLELAKQKLGLVPQEFNFNPFETVEQIVLQQAGYYGVPKALAKERAKKYLTQLDLWEKRSERARNLSGGMKRRLMIARALMHEPQLLILDEPTAGVDIELRRSMWEFLKQINAQGVTIILTTHYLEEAEMLCRHIGIIQRGELIENTTMKSLLGKLHVETFVLDVDGNAPIAPLQGVVKQQMVEGSLEIELEKSQGINHVFTQLTEQGVKVLSMRNKVNRLEELFVSIVNSGKRG”, the “soluble on expression in E. coli” value is reported as “not soluble”.
For “MYARYAGLIFDMDGTLLDTEPTHRKAWREVLGRYGLRFDEQAMVALNGSPTWLIAQSIIELNHADLDPLSLAREKTDAVKSILLDCVEPLPLVEVVKAWHGRRPMSVGTGSESAIAEALLAHLGLRRYFDAVVAADHVQHHKPAPDTFLLCAQRMGVMPTQCVVFEDADFGLQAARAAGMDAVDVRLL”, the “soluble on expression in E. coli” value was “not soluble”.
With “MYDKLLPMERIHIEVFEPFNGEAIEGKYSYVLLCRDYRSSFMWLLPLKSTKFKHLIPVVSSLFLTFARVPIFVTSSTLDKDDLYDICEEIASKYGLRIGLGLKSSARFHTGGILCIQYALNSYKKECLADWGKCLRYGPYRFNRRRNKRTKRK” the “soluble on expression in E. coli” value was “soluble”.
With “MYFMEILTCIKQVPGTTSVEVDETTGVLKRDGVDSKMNPYDLYALETALRIKEDKKANLKVLSMGPPQAKKVIEESFMMGADEGALISDRRFGGADVLATSYTISQGIKKMGKVDLIICGKQTTDGDTAQVGPEVAEFLDIPHVTNVTKLIEVKDESIVVEIDMPNDLQVCEIEYPCLITVEKDIFQPRLPSFKLKLNTKDREIPVYSLDDFEDKNENNYGLNGSPTQVVRIFPPKPNTDKNIVRGNADELSFALVNKLEELKLV” the “soluble on expression in E. coli” value was “not soluble”.

Reference: the DeepSol protein solubility set
